Data from patent US8349320 (LA JOLLA INSTITUTE FOR ALLERGY AND IMMUNOLOGY, dated 2013).

T1: mouse BTLA expressed on cells (mouse, UniProt Q7TSA3 30-306)
T1 construct: whole, on cells; the GFP part is not described further; also called mBTLA
T1 sequence (looked up): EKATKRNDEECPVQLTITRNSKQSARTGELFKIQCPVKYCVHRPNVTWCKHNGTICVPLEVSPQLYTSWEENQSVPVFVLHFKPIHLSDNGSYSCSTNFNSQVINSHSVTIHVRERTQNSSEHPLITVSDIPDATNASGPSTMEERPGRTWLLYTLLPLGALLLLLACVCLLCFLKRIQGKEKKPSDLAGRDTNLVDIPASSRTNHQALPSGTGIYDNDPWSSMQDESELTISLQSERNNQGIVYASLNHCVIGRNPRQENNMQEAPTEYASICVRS

B1: mouse HVEM-Fc (Fc fusion, UniProt Q80WM9 39-206, looked up)
chain: QPSCRQEEFLVGDECCPMCNPGYHVKQVCSEHTGTVCAPCPPQTYTAHANGLSKCLPCGVCDPDMGLLTWQECSSWKDTVCRCIPGYFCENQDGSHCSTCLQHTTCPPGQRVEKRGTHDQDTVCADCLTGTFSLGGTQEECLPWTNCSAFQQEVRRGTNSTDTTCSSQ
notes: extracellular domain; Expressed in insect cells (baculovirus); also called mHVEM-Fc; mHVEM:Fc; not shown: Fc region of human IgG1
B2: human HVEM-Fc (Fc fusion, UniProt Q92956 39-202, looked up)
chain: LPSCKEDEYPVGSECCPKCSPGYRVKEACGELTGTVCEPCPPGTYIAHLNGLSKCLQCQMCDPAMGLRASRNCSRTENAVCGCSPGHFCIVQDGDHCAACRAYATSSPGQRVQKGGTESQDTLCQNCPPGTFSPNGTLEECQHQTKCSWLVTKAGAGTSSSHWV
modifications: in the FIG. 3H assay biotinylated with NHS-PEO4-Biotin, 2 biotin molecules per HVEM-Fc (sites not given)
notes: extracellular domain; Ecto domain of the TNFR fused to Fc of human IgG1; also called hHVEM-Fc; hHVEM:Fc; not shown: Fc region of human IgG1

Columns and labels:
[1] = biological target: T2, human BTLA expressed on cells (human, UniProt Q7Z6A9 31-289); test: flow cytometry saturation binding, Fc fusion on cells expressing human BTLA (FIG. 3B)
T2 construct: whole, on cells; also called hBTLA

[2] = biological target: T1, mouse BTLA expressed on cells; test: flow cytometry saturation binding, Fc fusion on cells expressing mouse BTLA (FIG. 3B)
[3] = biological target: T2, human BTLA expressed on cells; test: flow cytometry saturation binding, Fc fusion on cells expressing human BTLA (FIG. 3A)
[4] = biological target: T1, mouse BTLA expressed on cells; test: flow cytometry, graded hHVEM-Fc on cells expressing mouse BTLA (FIG. 3A)
[5] = biological target: T3, full length human LIGHT expressed on EL4 cells (human, UniProt O43557 1-240); test: flow cytometry saturation binding, Fc fusion on EL4 cells expressing human LIGHT
T3 construct: whole, on cells; also called EL4-hLIGHT; hLIGHT-EL4 cells
T3 sequence (O43557 whole entry, the tested form may be a part): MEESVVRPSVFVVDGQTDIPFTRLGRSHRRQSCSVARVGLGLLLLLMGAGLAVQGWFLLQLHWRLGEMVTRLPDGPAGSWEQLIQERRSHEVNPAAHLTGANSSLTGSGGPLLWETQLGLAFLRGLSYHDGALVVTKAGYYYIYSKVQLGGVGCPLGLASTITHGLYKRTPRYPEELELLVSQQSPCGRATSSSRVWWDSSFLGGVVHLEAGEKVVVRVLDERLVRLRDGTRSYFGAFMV

| Binder | Kd [1] [nM] | Kd [2] [nM] | Kd [3] [nM] | binding result [4] | Kd [5] [nM] |
| --- | --- | --- | --- | --- | --- |
| B1 | 27 | 24 | – | – | – |
| B2 | – | – | 112 | no binding | 11 |
